Measured values as given in patent US20250207119A1.

Columns and labels:
Test in all cases: cell-based or functional assay
ADAM9 from R & D Systems = ADAM9 from R & D Systems (UniProt Q13443)
MMP 14 = MMP 14 (UniProt P50281)
MMP 12 = MMP 12 (UniProt P39900)
[1] = target: Human ADAM10 from R & D Systems (human) (UniProt O14672)
[2] = target: Meprin from R & D Systems
MMP 3 = MMP 3 (UniProt P08254)
MMP 9 = MMP 9 (UniProt P14780)
MMP 2 = MMP 2 (UniProt P08253)
[3] = target: ADAM17 from R & D Systems (UniProt P78536)
Chain of ADAM17 from R & D Systems (P78536 215-671 limits assumed): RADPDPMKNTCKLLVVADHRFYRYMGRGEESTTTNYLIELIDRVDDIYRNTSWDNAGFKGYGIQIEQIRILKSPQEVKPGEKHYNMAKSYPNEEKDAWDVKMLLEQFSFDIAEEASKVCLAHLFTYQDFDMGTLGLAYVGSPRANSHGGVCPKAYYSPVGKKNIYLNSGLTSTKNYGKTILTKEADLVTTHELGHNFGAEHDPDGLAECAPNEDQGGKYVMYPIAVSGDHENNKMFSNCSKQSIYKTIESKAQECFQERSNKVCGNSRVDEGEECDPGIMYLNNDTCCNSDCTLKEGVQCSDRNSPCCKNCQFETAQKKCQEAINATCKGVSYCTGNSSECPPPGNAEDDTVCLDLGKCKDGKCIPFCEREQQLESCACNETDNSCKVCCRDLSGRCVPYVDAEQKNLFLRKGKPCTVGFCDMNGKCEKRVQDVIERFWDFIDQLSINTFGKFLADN

Chain of MMP 3 (P08254 18-477 limits assumed): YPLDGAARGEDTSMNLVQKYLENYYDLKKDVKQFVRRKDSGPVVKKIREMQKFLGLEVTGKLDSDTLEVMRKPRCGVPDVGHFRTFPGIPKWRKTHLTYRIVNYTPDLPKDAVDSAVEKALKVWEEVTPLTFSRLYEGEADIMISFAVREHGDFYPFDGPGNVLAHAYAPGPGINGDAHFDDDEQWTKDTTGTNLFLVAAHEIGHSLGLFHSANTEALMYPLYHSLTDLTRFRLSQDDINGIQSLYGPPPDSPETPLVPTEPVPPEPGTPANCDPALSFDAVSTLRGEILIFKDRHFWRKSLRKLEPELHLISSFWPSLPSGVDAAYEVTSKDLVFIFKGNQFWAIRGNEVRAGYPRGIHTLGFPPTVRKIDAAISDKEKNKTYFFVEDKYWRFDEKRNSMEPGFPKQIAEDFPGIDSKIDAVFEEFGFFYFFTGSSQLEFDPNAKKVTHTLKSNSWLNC
Chain of Human ADAM10 from R & D Systems (human) (O14672 214-672 limits assumed): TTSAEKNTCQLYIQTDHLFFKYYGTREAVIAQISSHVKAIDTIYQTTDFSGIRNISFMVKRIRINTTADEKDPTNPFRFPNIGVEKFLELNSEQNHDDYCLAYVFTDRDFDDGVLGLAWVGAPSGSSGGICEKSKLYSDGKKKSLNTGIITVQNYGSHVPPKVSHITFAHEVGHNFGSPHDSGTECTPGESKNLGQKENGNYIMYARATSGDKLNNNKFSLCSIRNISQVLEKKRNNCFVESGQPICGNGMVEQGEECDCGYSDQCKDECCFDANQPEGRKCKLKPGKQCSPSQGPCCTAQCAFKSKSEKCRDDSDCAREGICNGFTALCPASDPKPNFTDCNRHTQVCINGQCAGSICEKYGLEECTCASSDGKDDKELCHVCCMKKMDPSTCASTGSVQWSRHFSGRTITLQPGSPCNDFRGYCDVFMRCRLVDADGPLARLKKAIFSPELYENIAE
Chain of ADAM9 from R & D Systems (Q13443 29-697 limits assumed): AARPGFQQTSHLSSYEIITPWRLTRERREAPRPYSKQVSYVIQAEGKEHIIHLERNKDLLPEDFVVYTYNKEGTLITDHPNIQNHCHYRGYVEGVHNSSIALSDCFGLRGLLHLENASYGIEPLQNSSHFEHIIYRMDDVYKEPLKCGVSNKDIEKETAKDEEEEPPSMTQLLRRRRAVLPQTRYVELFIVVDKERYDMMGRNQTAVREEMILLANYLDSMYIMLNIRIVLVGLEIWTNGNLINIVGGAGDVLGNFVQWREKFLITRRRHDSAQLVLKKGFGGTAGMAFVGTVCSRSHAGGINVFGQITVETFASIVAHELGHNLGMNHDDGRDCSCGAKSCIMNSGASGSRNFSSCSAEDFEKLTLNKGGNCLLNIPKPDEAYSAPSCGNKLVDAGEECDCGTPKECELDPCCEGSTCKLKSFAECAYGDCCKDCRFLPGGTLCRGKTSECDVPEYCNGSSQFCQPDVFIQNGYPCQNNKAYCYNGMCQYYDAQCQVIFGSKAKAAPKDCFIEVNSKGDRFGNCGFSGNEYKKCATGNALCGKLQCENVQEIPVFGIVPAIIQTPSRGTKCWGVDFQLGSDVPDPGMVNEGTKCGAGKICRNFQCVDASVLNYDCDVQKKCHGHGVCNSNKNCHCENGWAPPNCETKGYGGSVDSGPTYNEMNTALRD
Chain of MMP 12 (P39900 17-470 limits assumed): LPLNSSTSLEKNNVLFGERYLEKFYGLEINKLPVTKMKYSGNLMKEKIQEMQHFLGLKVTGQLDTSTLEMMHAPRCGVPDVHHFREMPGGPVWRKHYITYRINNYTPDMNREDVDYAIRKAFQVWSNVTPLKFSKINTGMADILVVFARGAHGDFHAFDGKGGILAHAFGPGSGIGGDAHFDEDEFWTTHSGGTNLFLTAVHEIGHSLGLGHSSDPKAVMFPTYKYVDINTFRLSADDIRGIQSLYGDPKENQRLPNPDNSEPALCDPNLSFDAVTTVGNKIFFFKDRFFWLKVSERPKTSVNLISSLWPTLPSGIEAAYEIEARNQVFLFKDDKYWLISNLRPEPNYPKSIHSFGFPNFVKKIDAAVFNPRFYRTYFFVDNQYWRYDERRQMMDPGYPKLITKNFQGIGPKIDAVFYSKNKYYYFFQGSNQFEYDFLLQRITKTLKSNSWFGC
Chain of MMP 9 (P14780 20-707 limits assumed): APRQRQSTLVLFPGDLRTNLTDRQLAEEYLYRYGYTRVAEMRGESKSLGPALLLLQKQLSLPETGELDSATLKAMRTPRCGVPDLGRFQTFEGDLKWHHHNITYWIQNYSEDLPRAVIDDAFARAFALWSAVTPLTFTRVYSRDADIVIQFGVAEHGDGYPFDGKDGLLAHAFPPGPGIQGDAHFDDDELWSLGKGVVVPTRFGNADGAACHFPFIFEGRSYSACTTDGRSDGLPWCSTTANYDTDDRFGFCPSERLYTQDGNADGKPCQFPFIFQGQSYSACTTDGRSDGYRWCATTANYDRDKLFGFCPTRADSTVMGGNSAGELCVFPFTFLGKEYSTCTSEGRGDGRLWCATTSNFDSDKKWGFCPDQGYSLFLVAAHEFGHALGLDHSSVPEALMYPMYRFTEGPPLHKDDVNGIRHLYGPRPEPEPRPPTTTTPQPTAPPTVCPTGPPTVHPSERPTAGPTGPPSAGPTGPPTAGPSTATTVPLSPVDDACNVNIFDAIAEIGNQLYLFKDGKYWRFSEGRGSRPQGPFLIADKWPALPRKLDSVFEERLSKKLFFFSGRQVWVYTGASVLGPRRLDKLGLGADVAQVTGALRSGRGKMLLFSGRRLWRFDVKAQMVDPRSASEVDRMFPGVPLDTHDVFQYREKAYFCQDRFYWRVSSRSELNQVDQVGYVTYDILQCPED
Chain of MMP 2 (P08253 30-660 limits assumed): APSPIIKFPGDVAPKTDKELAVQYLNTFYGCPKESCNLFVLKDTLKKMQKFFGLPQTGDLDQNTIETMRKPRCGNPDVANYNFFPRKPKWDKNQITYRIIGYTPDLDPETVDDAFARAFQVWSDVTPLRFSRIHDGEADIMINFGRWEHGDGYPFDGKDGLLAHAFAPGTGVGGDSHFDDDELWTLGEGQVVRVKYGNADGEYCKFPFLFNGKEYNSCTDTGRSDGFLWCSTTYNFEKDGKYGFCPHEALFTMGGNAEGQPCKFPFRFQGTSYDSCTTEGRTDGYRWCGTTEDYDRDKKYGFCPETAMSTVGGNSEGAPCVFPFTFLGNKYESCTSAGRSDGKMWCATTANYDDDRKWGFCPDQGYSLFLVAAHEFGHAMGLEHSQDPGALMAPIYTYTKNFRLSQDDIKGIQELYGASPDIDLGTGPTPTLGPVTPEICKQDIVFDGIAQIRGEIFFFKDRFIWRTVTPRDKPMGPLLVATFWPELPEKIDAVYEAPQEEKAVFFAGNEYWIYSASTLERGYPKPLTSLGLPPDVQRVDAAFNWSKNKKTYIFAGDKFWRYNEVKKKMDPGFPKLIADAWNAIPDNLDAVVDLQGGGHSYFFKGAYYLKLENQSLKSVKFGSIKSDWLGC

## SEQ ID NO: 1 (human wild type ADAM10 prodomain peptide, amino acids 23-211 of NP_001101.1)
ADAM9 from R & D Systems
  percent inhibition of ADAM9 activity: 0 % at 8 µM
MMP 14
  percent inhibition of MMP activity (PEPDAB008 substrate): 0 % at 8 µM
MMP 12
  percent inhibition of MMP activity (PEPDAB008 substrate): 0 % at 8 µM
[1]
  IC50 (nM), inhibition of ADAM10 cleavage of the fluorescent substrate PEPDAB064: 17 nM
[2]
  IC50 (nM), inhibition of meprin cleavage of the fluorescent substrate PEPDAB022: 185 nM
MMP 3
  percent inhibition of MMP activity (PEPDAB008 substrate): 0 % at 8 µM
MMP 9
  percent inhibition of MMP activity (PEPDAB008 substrate): 0 % at 8 µM
MMP 2
  percent inhibition of MMP activity (PEPDAB008 substrate): 0 % at 8 µM
[3]
  percent inhibition of ADAM17 activity: 28 % at 8 µM
